From US20200317768A1 (published 2020)
Numbering of substitutions follows the chain as printed.

B1: M103205H795-MY001/M103202L889-SK1 (antibody, human IgG1, kappa)
heavy: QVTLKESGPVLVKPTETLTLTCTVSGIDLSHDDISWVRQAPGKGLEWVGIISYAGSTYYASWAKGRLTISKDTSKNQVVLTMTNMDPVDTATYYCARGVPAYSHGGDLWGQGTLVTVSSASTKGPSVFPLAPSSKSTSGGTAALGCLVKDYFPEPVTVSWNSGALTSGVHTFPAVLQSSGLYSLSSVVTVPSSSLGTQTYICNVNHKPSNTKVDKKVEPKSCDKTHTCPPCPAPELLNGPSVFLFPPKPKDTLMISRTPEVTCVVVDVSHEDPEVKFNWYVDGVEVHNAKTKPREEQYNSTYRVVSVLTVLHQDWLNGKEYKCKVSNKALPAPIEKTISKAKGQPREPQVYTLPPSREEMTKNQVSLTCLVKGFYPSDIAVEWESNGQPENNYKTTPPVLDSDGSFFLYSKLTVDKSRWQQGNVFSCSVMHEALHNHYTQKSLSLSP
light: DIVMTQSPATLSLSPGERATLSCTSSQSVYHANWLSWFQQKPGQPPKLLIYWASTLAYGVPSRFSGSGSGTDFTLTISSLQPEDAATYYCAGGYGGGRYAFGQGTKVEIKRTVAAPSVFIFPPSDEQLKSGTASVVCLLNNFYPREAKVQWKVDNALQSGNSQESVTEQDSKDSTYSLSSTLTLSKADYEKHKVYACEVTHQGLSSPVTKSFNRGEC
notes: Substitution put into M103205H795-SG1
B2: M103205H795-MY074/M103202L889-SK1 (antibody, human IgG1, kappa)
heavy: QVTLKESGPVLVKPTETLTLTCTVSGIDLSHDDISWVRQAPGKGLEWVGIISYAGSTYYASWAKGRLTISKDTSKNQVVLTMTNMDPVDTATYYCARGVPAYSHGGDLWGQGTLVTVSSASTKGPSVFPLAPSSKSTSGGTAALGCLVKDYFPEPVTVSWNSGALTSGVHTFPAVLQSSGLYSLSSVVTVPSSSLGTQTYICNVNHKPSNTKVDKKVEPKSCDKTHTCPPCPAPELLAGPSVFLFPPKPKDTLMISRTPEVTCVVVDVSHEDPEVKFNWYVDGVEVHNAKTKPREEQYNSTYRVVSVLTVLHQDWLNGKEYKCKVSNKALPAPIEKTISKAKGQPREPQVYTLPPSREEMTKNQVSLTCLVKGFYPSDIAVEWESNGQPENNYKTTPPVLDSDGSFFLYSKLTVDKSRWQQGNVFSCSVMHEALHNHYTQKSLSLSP
light: B1 light
notes: as for B1
B3: M103205H795-MY011/M103202L889-SK1 (antibody, human IgG1, kappa)
heavy: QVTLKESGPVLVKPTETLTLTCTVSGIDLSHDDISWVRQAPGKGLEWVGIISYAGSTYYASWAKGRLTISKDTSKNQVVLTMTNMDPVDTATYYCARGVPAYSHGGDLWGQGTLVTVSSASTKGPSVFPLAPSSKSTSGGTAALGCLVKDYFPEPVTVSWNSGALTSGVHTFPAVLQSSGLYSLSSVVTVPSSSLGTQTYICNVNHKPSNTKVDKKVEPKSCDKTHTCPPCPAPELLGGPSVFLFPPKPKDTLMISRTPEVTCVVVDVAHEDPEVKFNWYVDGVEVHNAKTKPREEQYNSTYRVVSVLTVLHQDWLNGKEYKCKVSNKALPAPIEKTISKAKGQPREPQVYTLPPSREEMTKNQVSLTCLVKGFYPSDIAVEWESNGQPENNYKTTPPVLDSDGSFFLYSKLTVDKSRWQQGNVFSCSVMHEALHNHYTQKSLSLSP
light: B1 light
notes: Put into M103205H795-SG1
B4: M103205H795-MY042/M103202L889-SK1 (antibody, human IgG1, kappa)
heavy: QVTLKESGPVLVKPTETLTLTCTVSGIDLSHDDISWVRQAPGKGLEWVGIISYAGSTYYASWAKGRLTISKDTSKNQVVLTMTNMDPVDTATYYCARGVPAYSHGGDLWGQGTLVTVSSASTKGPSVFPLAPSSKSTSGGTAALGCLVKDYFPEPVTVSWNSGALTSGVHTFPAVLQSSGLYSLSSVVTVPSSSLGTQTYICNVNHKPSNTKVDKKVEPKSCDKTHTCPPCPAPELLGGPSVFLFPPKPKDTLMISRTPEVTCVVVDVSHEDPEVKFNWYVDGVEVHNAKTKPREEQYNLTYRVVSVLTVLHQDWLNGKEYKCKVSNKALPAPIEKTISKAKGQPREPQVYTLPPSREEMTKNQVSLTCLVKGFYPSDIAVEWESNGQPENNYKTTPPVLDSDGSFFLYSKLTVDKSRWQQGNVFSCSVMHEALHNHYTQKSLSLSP
light: B1 light
notes: as for B1

Experiments:
[1] = target: T1, cynomolgus monkey FcγRIIa1 extracellular domain, His-tagged (cynomolgus monkey); assay: SPR; KD of SG1 / KD of variant;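 note: relative to parent M103205H795-SG1 carrying the SG1 human heavy chain constant region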
T1 construct: also called cyno FcγRIIa1; cynoFcgRIIa1
T1 chain: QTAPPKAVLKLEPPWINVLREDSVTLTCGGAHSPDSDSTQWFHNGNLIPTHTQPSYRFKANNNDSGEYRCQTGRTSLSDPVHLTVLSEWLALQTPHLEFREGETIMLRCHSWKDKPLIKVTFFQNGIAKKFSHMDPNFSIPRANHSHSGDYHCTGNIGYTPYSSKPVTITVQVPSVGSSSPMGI

[2] = target: T2, cynomolgus monkey FcγRIIa2 extracellular domain, His-tagged (cynomolgus monkey); assay: SPR; KD of SG1 / KD of variant;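 note: relative to parent M103205H795-SG1 carrying the SG1 human heavy chain constant region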
T2 construct: also called cyno FcγRIIa2; cynoFcgRIIa2
T2 chain: T1 chain with P95T, T121A, I127K, A128S, K130N, D135N, R142Q

[3] = target: T3, cynomolgus monkey FcγRIIa3 extracellular domain, His-tagged (cynomolgus monkey); assay: SPR; KD of SG1 / KD of variant;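 note: relative to parent M103205H795-SG1 carrying the SG1 human heavy chain constant region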
T3 construct: also called cyno FcγRIIa3; cynoFcgRIIa3
T3 chain: T1 chain with P95T, T121A, A128S, H133P, D135N

[4] = target: T4, cynomolgus monkey FcγRIIb extracellular domain, His-tagged (cynomolgus monkey); assay: SPR; KD of SG1 / KD of variant;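 note: relative to parent M103205H795-SG1 carrying the SG1 human heavy chain constant region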
T4 construct: also called cyno FcγRIIb; cynoFcγRIIb
T4 chain: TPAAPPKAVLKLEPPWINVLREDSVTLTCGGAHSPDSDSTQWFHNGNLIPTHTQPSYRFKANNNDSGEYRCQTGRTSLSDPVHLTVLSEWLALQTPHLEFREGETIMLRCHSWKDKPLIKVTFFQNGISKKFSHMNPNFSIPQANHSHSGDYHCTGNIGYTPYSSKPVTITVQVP

[5] = target: T5, cynomolgus monkey FcγRIIIaS extracellular domain, His-tagged (cynomolgus monkey, UniProt Q8SPW2 21-206 at identity 1.00)); assay: SPR; KD of SG1 / KD of variant
T5 construct: also called cyno FcγRIIIaS; cynoFcγRIIIaS
T5 chain: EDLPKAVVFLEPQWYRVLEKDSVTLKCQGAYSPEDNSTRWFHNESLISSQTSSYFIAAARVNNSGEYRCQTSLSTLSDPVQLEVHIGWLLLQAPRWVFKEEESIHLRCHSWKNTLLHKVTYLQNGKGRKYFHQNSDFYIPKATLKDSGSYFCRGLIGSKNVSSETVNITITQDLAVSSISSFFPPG

[6] = target: T6, human FcγRIIaH extracellular domain, His-tagged (human, UniProt P12318 34-217); assay: SPR; KD of SG1 / KD of variant
T6 construct: also called human FcγRIIa (type H); FcgRIIaH
T6 sequence: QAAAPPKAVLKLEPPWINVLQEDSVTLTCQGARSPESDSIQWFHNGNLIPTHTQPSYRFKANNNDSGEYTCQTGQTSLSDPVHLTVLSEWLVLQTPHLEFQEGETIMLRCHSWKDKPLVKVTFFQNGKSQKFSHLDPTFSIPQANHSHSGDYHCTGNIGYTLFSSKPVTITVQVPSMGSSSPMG

[7] = target: T7, human FcγRIIaR extracellular domain, His-tagged (human, UniProt P12318 34-217); assay: SPR; KD of SG1 / KD of variant
T7 construct: also called human FcγRIIa (type R); FcgRIIaR
T7 chain: T6 sequence with H134R

[8] = target: T8, human FcγRIIb extracellular domain, His-tagged (human, UniProt P31994 43-217); assay: SPR; KD of SG1 / KD of variant
T8 construct: also called FcgRIIb (human)
T8 sequence: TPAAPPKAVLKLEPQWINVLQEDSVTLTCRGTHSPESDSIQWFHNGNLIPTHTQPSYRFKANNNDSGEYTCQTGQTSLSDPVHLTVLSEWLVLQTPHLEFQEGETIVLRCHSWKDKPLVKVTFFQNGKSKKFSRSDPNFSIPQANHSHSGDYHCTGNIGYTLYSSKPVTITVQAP

[9] = target: T9, human FcγRIIIaV extracellular domain, His-tagged (human, UniProt P08637 17-208); assay: SPR; KD of SG1 / KD of variant
T9 construct: also called FcgRIIIaV
T9 sequence (P08637 17-208 F176V): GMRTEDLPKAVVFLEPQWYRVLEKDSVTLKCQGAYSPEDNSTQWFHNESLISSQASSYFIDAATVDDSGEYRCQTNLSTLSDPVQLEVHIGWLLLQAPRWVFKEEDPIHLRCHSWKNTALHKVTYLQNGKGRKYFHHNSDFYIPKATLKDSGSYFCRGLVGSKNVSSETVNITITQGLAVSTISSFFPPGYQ

[10] = target: T1, cynomolgus monkey FcγRIIa1 …; assay: SPR, antibody captured, FcgR analyte
Protocol: (§1) The kinetic analysis of interactions between these antibodies and FcγR was carried out using BIACORE® T200 or BIACORE® 4000 (GE Healthcare). HBS-EP+ (GE Healthcare) was used as the running buffer, and the measurement temperature was set to 25° C. A chip produced by immobilizing Protein A. Protein A/G or mouse anti-human IgG kappa light chain (BD Biosciences) onto a Series S Sensor Chip CM4 or CM5 (GE Healthcare) by the amine-coupling method was used. […] After the measurement, the antibody captured on the chip was washed off by allowing reaction with 10 mM glycine-HCl, pH1.5 and 25 mM NaOH so that the chip was regenerated and used repeatedly. The sensorgrams obtained as measurement results were analyzed by the 1:1 Langmuir binding model using the BIACORE® Evaluation Software to calculate the binding rate constant ka (L/mol/s) and dissociation rate constant kd (l/s), and the dissociation constant KD (mol/L) was calculated from these values. […] Regarding such interactions, KD values were calculated using the following 1:1 binding model described in BIACORE® T100 Software Handbook BR1006-48 Edition AE.
(§2) The behavior of interacting molecules according to the 1:1 binding model on BIACORE® can be described by Equation 1: Req=C·R max/(KD+C)+RI, wherein, Req is a plot of steady-state binding levels to analyte concentration. C is concentration, RI is bulk refractive index contribution in the sample, and Rmax is analyte binding capacity of the surface. When this equation is rearranged, KD can be expressed as Equation 2: KD=C·Rmax/(Req−RI)−C. KD can be calculated by substituting the values of Rmax, RI, and C into Equation 1 or Equation 2. From the current measurement conditions, RI=0, C=2 μmol/L can be used.

[11] = target: T2, cynomolgus monkey FcγRIIa2 …; assay: SPR, antibody captured, FcgR analyte
Protocol: as §1, §2

[12] = target: T3, cynomolgus monkey FcγRIIa3 …; assay: SPR, antibody captured, FcgR analyte
Protocol: as §1, §2

[13] = target: T4, cynomolgus monkey FcγRIIb extracellular …; assay: SPR, antibody captured, FcgR analyte
Protocol: as §1, §2

[14] = target: T5, cynomolgus monkey FcγRIIIaS …; assay: SPR, antibody captured, FcgR analyte
Protocol: as §1, §2

[15] = target: T6, human FcγRIIaH extracellular domain, …; assay: SPR, antibody captured, FcgR analyte
Protocol: as §1, §2

[16] = target: T7, human FcγRIIaR extracellular domain, …; assay: SPR, antibody captured, FcgR analyte
Protocol: as §1, §2

[17] = target: T8, human FcγRIIb extracellular domain, …; assay: SPR, antibody captured, FcgR analyte
Protocol: as §1, §2

[18] = target: T9, human FcγRIIIaV extracellular domain, …; assay: SPR, antibody captured, FcgR analyte
Protocol: as §1, §2

Row | Binder | KD fold (SG1 = 1) [1] [fold] | KD fold (SG1 = 1) [2] [fold] | KD fold (SG1 = 1) [3] [fold] | KD fold (SG1 = 1) [4] [fold] | KD fold (SG1 = 1) [5] [fold] | KD fold (SG1 = 1) [6] [fold] | KD fold (SG1 = 1) [7] [fold] | KD fold (SG1 = 1) [8] [fold] | KD fold (SG1 = 1) [9] [fold] | Kd [10] [nM] | Kd [11] [nM] | Kd [12] [nM] | Kd [13] [nM] | Kd [14] [nM] | Kd [15] [nM] | Kd [16] [nM] | Kd [17] [nM] | Kd [18] [nM]
1 | B1 | 1.1 | 1.4 | 1.2 | 1 | 0.03 | 0.2 | 0.1 | 0.6 | 0.84 | 2900 | 3500 | 15000 | 1800 | 1200 | 3200 | 8200 | 7700 | –
2 | B2 | 1.6 | 2.2 | 2.7 | 1.6 | 1.33 | 7.5 | 5.2 | 1.3 | 1.45 | 2000 | – | 6200 | 1100 | 270 | 92 | – | 8600 | 560
3 | B3 | 1.4 | 1.8 | 1.7 | 1.8 | 2.4 | 1.4 | 6.5 | 7 | 2.38 | – | 2800 | 9900 | 1000 | 150 | 490 | 170 | 660 | 340
4 | B4 | 6.3 | 1.6 | 2.1 | 1.1 | 0.82 | 0.7 | 1.1 | 1.2 | 1.53 | – | 3100 | 8000 | 1600 | 440 | 1000 | 980 | 4000 | 530
